Where “and” joins values, the source holds several entries; their conditions need not be identical. Equal values may be shown once.

From patent publication US5070188A, “Acylated epidermal growth factor” (Ethicon, Inc., priority 1989, dated 1991) come the findings set out here.

Data set [1] has as its target T1, trypsin (Bos taurus, UniProt P00760).
T1 construct: purchased Worthington Biochem Corp
T1 sequence (P00760 24-246): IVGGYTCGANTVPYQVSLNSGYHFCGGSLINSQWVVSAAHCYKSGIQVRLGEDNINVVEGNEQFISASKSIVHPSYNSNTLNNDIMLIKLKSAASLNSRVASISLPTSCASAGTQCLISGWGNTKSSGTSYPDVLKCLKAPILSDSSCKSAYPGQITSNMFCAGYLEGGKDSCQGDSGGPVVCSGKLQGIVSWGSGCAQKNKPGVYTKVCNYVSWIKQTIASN
Description: in vitro susceptibility to proteolytic degradation (tryptic digestion, HPLC). Format: in vitro ADME.

Data set [2] can be described thus: shelf stability, activity followed with the Receptor Binding Assay. Format: physicochemical. Particulars: for activity retained (RBA), 2 months/37° C.: stored 2 months at 37° C.; for activity retained (RBA), 2 months/4° C.: stored 2 months at 4° C. From the text: Samples are further analyzed by testing the biological activity in the Receptor Binding Assay (RBA) system and/or in a mitogenic assay system according to the standard procedure. Under these conditions, the extent of activity of modified EGF was compared with that of the unmodified EGF on a weight per weight basis. A similar test is used to follow the stability of EGF products. The RBA is described in Savage et al., Analytical Biochem, 111, pages 195 et seq. (1981) and in U.S. Pat. No. 4,717,717. For RBA studies, a cell line with a high density of receptors for EGF is grown to confluency in microwell plates. After removing the growth media and slightly fixing the cells, the binding of modified EGF to the cell surface in the presence of competing iodinated-EGF is compared with the binding of non-radioactive, unmodified EGF under the same conditions. The concentration of modified EGF is extrapolated from the standard curve made for unmodified EGF. Acylated EGF with acyl side chains ranging from C2 to C8 retained biological activity according to the RBA.
The shelf stability of EGF and acylated EGF derivatives with different degrees of modification and acyl side chains was studied using the Receptor Binding Assay (RBA) system. […]

The test system of data set [3] is EGF sensitive cell line. As to the kind of experiment: mitogenic assay, tritium labelled thymidine incorporation. Format: cell-based. To be noted: compared with C2 acylated EGF. On the procedure:
For mitogenic assay systems, an EGF sensitive cell line is grown to confluency at the bottom of microwell plates. After replacing the regular growth media with growth factor poor media, modified EGF is added with tritium labelled thymidine. The extent of incorporation of the tritium labelled thymidine in the presence and absence of growth factors is then weighed. The effects of modified EGF are compared with those of unmodified EGF under the same system.
A general note: Incorporation of labelled thymidine or its analogues reports DNA synthesis.

With “C2 -EGF: human EGF triacylated with acetyl groups”, the “remaining fraction that resisted proteolysis” value in data set [1] (mixture C2-EGF:native EGF 1.5 to 1, TPCK-trypsin, up to 4 hours incubation) is reported as 75-80%. The “fraction that resisted proteolytic cleavage at Arg 41 and Arg 45” value in data set [1] (trypsin, over 4 hours incubation at 30° C.) was “over 75%”. The “tryptic fragments generated (HPLC, cation exchanger column)” value in data set [1] (tryptic digestion, substance alone) is on record as “did not generate any fragment”. Also, in data set [2], the “activity retained (RBA), 2 months/37° C.” value was 87.37% and 88%; the “activity retained (RBA), stored time 0” value stood at 100%. Also, the “improvement of retained activity over control unmodified native EGF” value in data set [2] (stored at 37° C., 2 months) is recorded as 30%.

On to “C6 -EGF: acylated human EGF with C6 acyl side chain”, for which, in data set [2], the “activity retained (RBA), 2 months/4° C.” value was 61.88%; the “activity retained (RBA), 2 months/37° C.” value worked out at 66.94%; the “activity retained (RBA), stored time 0” value was 100%.

In the case of “C8 -EGF: acylated human EGF with C8 acyl side chain”, in data set [2], the “activity retained (RBA), 2 months/4° C.” value stood at 83.19%; the “activity retained (RBA), 2 months/37° C.” value is reported as 69.04%; the “activity retained (RBA), stored time 0” value is on record as 100%.

For “C12: acylated EGF having an acyl side chain of C12”, the “reactivity in the mitogenic assay” value in data set [3] is given as “nearly as reactive as C2”.

For the substance “Control EGF: Recombinantly produced human EGF (Chiron Corporation), unmodified 53 amino acid polypeptide, used as control [reference compound]”, the fraction digested entry in data set [1] (mixture C2-EGF:native EGF 1.5 to 1, TPCK-trypsin, within about 20 minutes) is “over 85%”. The cleavage by trypsin result in data set [1] (within 5 minutes post-incubation, 30° C.) is “over 65%”. For the same substance, the “remaining molecules cleaved by trypsin” value in data set [1] (within 2 hours post-incubation) is given as 35%. Moreover, in data set [2], the “activity retained (RBA), 2 months/4° C.” value is 81.09% and 81%; the “activity retained (RBA), 2 months/37° C.” value was 57.52% and 58%; the “activity retained (RBA), stored time 0” value came to 100%.
